In series [1] the target is T1, SgrAI WT (UniProt Q9F6L0 1-339).
T1 sequence: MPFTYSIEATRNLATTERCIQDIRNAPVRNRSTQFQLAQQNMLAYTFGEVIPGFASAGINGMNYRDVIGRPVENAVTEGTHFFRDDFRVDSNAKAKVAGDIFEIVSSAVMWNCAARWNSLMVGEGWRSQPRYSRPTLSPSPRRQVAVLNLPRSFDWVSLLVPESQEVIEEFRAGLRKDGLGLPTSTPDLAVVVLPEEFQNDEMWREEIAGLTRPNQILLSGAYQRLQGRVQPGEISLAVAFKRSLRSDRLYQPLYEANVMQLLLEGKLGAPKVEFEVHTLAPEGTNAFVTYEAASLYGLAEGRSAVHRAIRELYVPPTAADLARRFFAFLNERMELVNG
As to the kind of experiment: cryo-EM structure (3.1 A); Mg2+ in sites A and B; filament; DNA cleaved at the scissile phosphate during 1.5 h incubation (product complex); Cryo-EM samples: buffer containing MgCl2, room temperature (30 min for K242A, 1.5 h for WT); full buffer, salt and pH not in the material. The following applies: protein: recombinant; tags: His tag implied (HisTrap purification); chain copies: 2; blunt.

Series [2] concerns the target T2, SgrAI K242A (UniProt Q9F6L0 1-339, K242A;L336K).
T2 sequence: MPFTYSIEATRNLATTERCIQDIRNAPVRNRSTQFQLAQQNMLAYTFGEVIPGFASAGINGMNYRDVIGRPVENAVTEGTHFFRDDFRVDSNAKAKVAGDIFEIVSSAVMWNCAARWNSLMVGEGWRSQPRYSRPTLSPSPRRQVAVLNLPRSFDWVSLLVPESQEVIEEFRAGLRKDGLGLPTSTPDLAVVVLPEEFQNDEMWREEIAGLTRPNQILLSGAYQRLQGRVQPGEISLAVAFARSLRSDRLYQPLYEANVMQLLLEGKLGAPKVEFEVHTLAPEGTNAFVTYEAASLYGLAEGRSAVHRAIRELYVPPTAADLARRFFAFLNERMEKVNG
Nature of the series: cryo-EM structure (3.3 A); Mg2+ in sites A and B; filament; DNA uncleaved; 30 min at room temperature; Cryo-EM samples: buffer containing MgCl2, room temperature (30 min for K242A, 1.5 h for WT); full buffer, salt and pH not in the material. The following applies: protein: recombinant; tags: His tag implied (HisTrap purification); chain copies: 2; blunt.

B1: 40-1 (dsDNA)
DNA 1: GATGCGTGGGTCTTCACACCGGTGGATGCGTGGGTCTTCA
DNA 2: TGAAGACCCACGCATCCACCGGTGTGAAGACCCACGCATC
On to B1, for which the binding result in series [1] and in series [2] was “binds” throughout.
